± gives the standard deviation of the averaged measurements.
test system: ATP; assay: switch fluorescence ratio, 500 uM ATP over buffer (Cy3 cluster intensity, sum of 5 cycles each) (fold (ratio)); higher = stronger signal-on switching upon ATP binding; sequences stand for … in TCGTCGGCAGCGTCAGATGTGTATAAGAGACAGTTTTTTTTTTTTTTTTTTTTTTTTT…TC; settings: aptamer strand: ATP DNA aptamer (quencher-CACCTGGGGGAGTATTGCGGAGGAAGG + anchor), 100 nM annealed; ATP concentration: 500 uM
How it was run: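 Clusters with intensities outside 100-1000 RFU were excluded. The remaining Cy3-labelled switching-strand clusters on a modified Illumina MiSeq flow-cell had been annealed to 100 nM quencher-labelled ATP aptamer and imaged in selection buffer, then after 15 min with 500 uM ATP at 22 °C, for five cycles separated by NaOH stripping and re-annealing. The fluorescence ratio, averaged per switch-domain sequence, is each cluster's summed target-cycle Cy3 intensity over its summed buffer-cycle Cy3 intensity.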
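Further: ATP exposure 15 min at 22 °C before imaging.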

Point of comparison: ACGGGGTAGA, switch fluorescence ratio 1.03 ± 0.052. Against it:
- ACGGGCAACG — within error, 0.9743 ± 0.0065
- ACGGGCACTT — within error, 1.12 ± 0.041
- ACGGGCATCG — within error, 1.02 ± 0.032
- ACGGGCCTTC — the same, 1.03 ± 0.012
- ACGGGCTTAG — within error, 1.01 ± 0.016
- ACGGGGAAGG — the same, 1.03 ± 0.035
- ACGGGGCGGC — higher, 1.11 ± 0.028
- ACGGGGCGTT — within error, 1.01 ± 0.012
- ACGGGGGAGG — within error, 1.02 ± 0.028
- ACGGGGGATG — within error, 0.995 ± 0.025
- ACGGGGGCCG — within error, 0.993 ± 0.041
- ACGGGGGTT — within error, 0.98 ± 0.017
- ACGGGGTGTC — within error, 1.08 ± 0.089
- ACGGGGTTTT — within error, 1.01 ± 0.017
- ACGGGTAATT — within error, 1.02 ± 0.037
- ACGGGTAGGG — within error, 1.05 ± 0.035
- ACGGGTTCCT — within error, 1 ± 0.025
- ACGGGTTGTC — within error, 0.981 ± 0.11
- ACGGGTTTGG — within error, 1.01 ± 0.023
- ACGGTAGAAC — within error, 1.04 ± 0.021
- ACGGTAGTGC — within error, 1.04 ± 0.022
- ACGGTATTG — higher, 1.19 ± 0.037
- ACGGTCAGGG — within error, 1.046 ± 0.0074
- ACGGTCGGCT — within error, 1.04 ± 0.048
- ACGGTGACGG — within error, 1.02 ± 0.04
- ACGGTGATCA — the same, 1.03 ± 0.038
- ACGGTGCCAA — within error, 1.02 ± 0.034
- ACGGTGTGCG — within error, 1 ± 0.058
- ACGGTTATTT — within error, 1.072 ± 0.01
- ACGGTTCCAT — within error, 0.97 ± 0.057
- ACGGTTGGTG — within error, 1.01 ± 0.027
- ACGGTTTTTC — within error, 1.0014 ± 0.0005
- ACGTAAAAGT — within error, 1.25 ± 0.41
- ACGTAACATG — higher, 1.24 ± 0.015
- ACGTAATGTC — higher, 1.25 ± 0.12
- ACGTAATTAA — higher, 1.13 ± 0.026
- ACGTAGAATG — within error, 1.06 ± 0.015
- ACGTAGACGT — within error, 1.02 ± 0.018
- ACGTAGTGCG — within error, 1 ± 0.023
- ACGTATGTTG — within error, 1.022 ± 0.0017
- ACGTCAAGAG — higher, 1.45 ± 0.0026
- ACGTCAGTTG — within error, 0.975 ± 0.012
- ACGTCATAGT — higher, 1.14 ± 0.047
- ACGTCCAAAA — within error, 1.04 ± 0.026
- ACGTCCGCTA — higher, 2.6 ± 0.064
- ACGTCGATGG — within error, 0.995 ± 0.019
- ACGTGACCAT — higher, 1.33 ± 0.047
- ACGTGAGGTT — within error, 1.01 ± 0.059
- ACGTGAGTGT — within error, 0.977 ± 0.0076
- ACGTGAGTTT — within error, 0.957 ± 0.035
- ACGTGATTTT — within error, 1.09 ± 0.065
- ACGTGCAGTC — within error, 1.12 ± 0.083
- ACGTGGTCCA — within error, 0.985 ± 0.037
- ACGTGGTTAG — within error, 1 ± 0.029
- ACGTGTCTTG — within error, 1.01 ± 0.013
- ACGTGTGATG — within error, 0.99 ± 0.024
- ACGTGTTAAT — within error, 1.005 ± 0.0017
- ACGTTAAATG — within error, 1.13 ± 0.053
- ACGTTAAGAT — within error, 1.29 ± 0.26
- ACGTTACTCA — higher, 1.5 ± 0.032
- ACGTTATGTT — within error, 1.1 ± 0.035
- ACGTTGCACA — higher, 1.18 ± 0.016
- ACGTTTGGCT — within error, 0.954 ± 0.028
- ACGTTTGTTA — within error, 1.002 ± 0.0059
- ACGTTTTAA — within error, 0.9999 ± 0.0084
- ACTAAAAGGT — within error, 1.01 ± 0.012
- ACTAAAGTGC — within error, 1.01 ± 0.03
- ACTAAATATG — within error, 1.05 ± 0.046
- ACTAAATCGG — within error, 1.02 ± 0.039
- ACTAAGGGAG — within error, 1.01 ± 0.005
- ACTAATATAT — within error, 0.999 ± 0.04
- ACTAATATCG — within error, 1.04 ± 0.036
- ACTAATATTG — the same, 1.032 ± 0.0054
- ACTACAGCTC — higher, 1.15 ± 0.021
- ACTACGTAAA — within error, 0.997 ± 0.046
- ACTACTACTT — higher, 1.16 ± 0.019
- ACTACTGACA — higher, 1.24 ± 0.04
- ACTAGAAGAC — within error, 1.04 ± 0.012
- ACTAGGGATG — within error, 0.987 ± 0.014
- ACTAGTATGG — the same, 1.03 ± 0.053
- ACTAGTCAAA — within error, 1.02 ± 0.012
- ACTAGTGGTC — within error, 0.992 ± 0.042
- ACTATCGGGT — within error, 1.04 ± 0.028
- ACTATTATCT — within error, 1.023 ± 0.0099
- ACTATTATTT — within error, 0.9887 ± 0.0022
- ACTCAGCTGG — within error, 1.074 ± 0.0069
- ACTCAGTATA — within error, 1.1 ± 0.02
- ACTCAGTTGT — within error, 1.06 ± 0.059
- ACTCATATCG — within error, 0.987 ± 0.029
- ACTCATGTTG — within error, 0.98166 ± 0.00011
- ACTCCATGCG — higher, 1.155 ± 0.0036
- ACTCCGACCG — higher, 1.72 ± 0.14
- ACTCCGGGGA — higher, 2.4 ± 0.42
- ACTCCTAACC — higher, 1.26 ± 0.047
- ACTCCTCGAC — higher, 2.71 ± 0.41
- ACTCCTGGTT — within error, 1.01 ± 0.014
- ACTCGAGGGG — within error, 1.01 ± 0.041
- ACTCGCGGGC — higher, 1.98 ± 0.21
- ACTCGGGCTA — within error, 1.59 ± 0.61

From the supplement of paper PMC10126150
